Laboratory results from paper PMC3173040.

Experiments:
[1] = target: actin (UniProt P68135); experiment: SAXS
[2] = target: VopL fragment 200-484 (1W-VCD) (Vibrio parahaemolyticus) (UniProt Q87GE5); experiment: SEC-MALS
[3] = target: actin (UniProt P68135); experiment: SEC-MALS
[4] = target: 3W-VCD-AviTag bound to quantum dots (Vibrio parahaemolyticus) (UniProt Q87GE5); experiment: TIRF microscopy
[5] = target: actin (UniProt P68135); experiment: ITC

VopL fragment 200-484 (1W-VCD) (from UniProt Q87GE5 200-484) (domain or fragment)
stoichiometry N (actin molecules per 1W-VCD dimer) [1]: 2 | stoichiometry N [2]: 2 | stoichiometry N (actin molecules per 1W-VCD dimer) [3]: 2

actin (from UniProt P68135 1-377) (natural protein)
percent of filaments associated with Qdots through the pointed end [4]: 10.9%

third W domain of VopL (domain or fragment)
Kd [5]: 0.41 µM
